The target in assay [1] is T1, human c-Met (Sino Biological) (human, UniProt P08581 25-932, limits assumed).
T1 construct: Analyte in the Biacore assay; also called antigen (c-Met); printed as "human c-Met antibody (Sino Biological, Beijing, China)"
The assay can be described thus: SPR (Biacore T200), IgG captured on Protein A CM5 chip, c-Met 0.15-2 nM as analyte. The protocol:
(§1) The candidate antibodies selected in Example 4 were measured for binding affinity for the antigen (c-Met) with the aid of Biacore. […] The anti-c-Met antibodies to be analyzed were immobilized on Protein A CM5 chips (GE Healthcare, Little Chalfont, UK) through which human c-Met antibody (Sino Biological, Beijing, China) with various concentrations ranging 0.15 to 2 nM was allowed to pass, thereby acquiring sensorgrams. On the basis of the acquired sensorgrams, association constants kₒₙ and dissociation constants koff were measured to calculate Ko value, the ratio koff/kₒₙ.
(In general: Surface plasmon resonance follows binding to a sensor surface in real time, without labels.)

In assay [2] the target is c-Met protein receptors on HUVEC (human, UniProt P08581 25-1390). In words: cell-based or functional assay.
Assay [3] has as its target T1, human c-Met (Sino Biological). In words: derived from the Biacore KD, normalised to VH0/Vk0. The protocol: as §1
(§2) In order to select a final candidate group from the 21 candidate antibodies selected in Example 4, comparison was made according to criteria specified into expression level, binding affinity for antigen, thermal stability, and biopotency. As a rule, the expression level is considered to be the most important index when time and cost are taken into consideration from a point of view of production. […] Thereafter, degrees of improvement in each of the remaining candidate antibodies compared to the reference antibody (VH0/Vk0) were digitized with regard to the selected indices. For normalization, analysis index measurements for individual candidate antibodies were divided by average values to give ratios (index 1) which were in turn divided by the measurement for the antibody VH0/Vk0 (index 2) (Tables 6 to 9). In addition, the measurements for the four indices were multiplied for comprehensive comparison of the four indices of the candidate antibodies. The final results (index 3) are listed in a descending order in Table 10.

The target is the same in assay [4]. In words: derived from the Biacore KD, printed 'Average' 3.52 x10^-10 M divided by the KD. The protocol: as §1, §2

The term Kd denotes the concentration at which binding is half-saturated.

Sequence of c-Met protein receptors on HUVEC (P08581 25-1390): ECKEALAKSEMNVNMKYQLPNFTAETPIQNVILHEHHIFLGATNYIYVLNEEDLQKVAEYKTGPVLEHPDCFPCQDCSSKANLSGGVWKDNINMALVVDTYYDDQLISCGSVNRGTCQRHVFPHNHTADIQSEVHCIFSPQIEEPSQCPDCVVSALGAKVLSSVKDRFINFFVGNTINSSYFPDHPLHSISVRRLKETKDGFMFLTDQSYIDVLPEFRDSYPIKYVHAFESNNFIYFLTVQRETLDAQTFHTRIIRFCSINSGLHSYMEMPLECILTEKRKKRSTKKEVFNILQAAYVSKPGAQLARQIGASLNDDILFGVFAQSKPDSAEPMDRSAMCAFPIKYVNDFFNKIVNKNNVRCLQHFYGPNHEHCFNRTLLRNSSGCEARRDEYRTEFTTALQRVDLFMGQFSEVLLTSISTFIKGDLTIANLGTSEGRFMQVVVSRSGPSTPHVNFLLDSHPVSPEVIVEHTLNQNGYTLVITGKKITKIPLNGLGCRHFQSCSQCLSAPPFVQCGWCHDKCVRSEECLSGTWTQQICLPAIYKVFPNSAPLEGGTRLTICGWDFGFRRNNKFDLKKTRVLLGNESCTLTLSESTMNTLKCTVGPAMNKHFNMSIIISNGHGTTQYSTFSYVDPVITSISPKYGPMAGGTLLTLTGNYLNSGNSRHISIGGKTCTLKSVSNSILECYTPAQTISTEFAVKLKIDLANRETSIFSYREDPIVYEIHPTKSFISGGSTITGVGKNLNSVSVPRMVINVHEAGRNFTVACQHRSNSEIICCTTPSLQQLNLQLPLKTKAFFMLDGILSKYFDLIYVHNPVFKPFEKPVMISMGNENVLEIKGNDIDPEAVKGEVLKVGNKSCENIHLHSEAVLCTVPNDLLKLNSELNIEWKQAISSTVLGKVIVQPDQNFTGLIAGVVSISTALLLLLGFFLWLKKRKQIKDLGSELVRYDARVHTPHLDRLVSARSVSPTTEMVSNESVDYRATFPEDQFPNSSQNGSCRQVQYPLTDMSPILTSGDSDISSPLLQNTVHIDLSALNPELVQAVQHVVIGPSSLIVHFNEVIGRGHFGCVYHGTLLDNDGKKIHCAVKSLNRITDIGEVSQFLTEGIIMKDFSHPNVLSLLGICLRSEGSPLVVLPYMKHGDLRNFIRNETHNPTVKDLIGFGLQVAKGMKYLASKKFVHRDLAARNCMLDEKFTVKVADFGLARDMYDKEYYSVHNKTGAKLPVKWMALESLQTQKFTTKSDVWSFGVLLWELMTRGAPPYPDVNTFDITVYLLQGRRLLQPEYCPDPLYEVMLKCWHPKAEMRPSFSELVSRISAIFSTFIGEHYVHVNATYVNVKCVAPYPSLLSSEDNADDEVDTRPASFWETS
T1 sequence (P08581 25-932 limits assumed): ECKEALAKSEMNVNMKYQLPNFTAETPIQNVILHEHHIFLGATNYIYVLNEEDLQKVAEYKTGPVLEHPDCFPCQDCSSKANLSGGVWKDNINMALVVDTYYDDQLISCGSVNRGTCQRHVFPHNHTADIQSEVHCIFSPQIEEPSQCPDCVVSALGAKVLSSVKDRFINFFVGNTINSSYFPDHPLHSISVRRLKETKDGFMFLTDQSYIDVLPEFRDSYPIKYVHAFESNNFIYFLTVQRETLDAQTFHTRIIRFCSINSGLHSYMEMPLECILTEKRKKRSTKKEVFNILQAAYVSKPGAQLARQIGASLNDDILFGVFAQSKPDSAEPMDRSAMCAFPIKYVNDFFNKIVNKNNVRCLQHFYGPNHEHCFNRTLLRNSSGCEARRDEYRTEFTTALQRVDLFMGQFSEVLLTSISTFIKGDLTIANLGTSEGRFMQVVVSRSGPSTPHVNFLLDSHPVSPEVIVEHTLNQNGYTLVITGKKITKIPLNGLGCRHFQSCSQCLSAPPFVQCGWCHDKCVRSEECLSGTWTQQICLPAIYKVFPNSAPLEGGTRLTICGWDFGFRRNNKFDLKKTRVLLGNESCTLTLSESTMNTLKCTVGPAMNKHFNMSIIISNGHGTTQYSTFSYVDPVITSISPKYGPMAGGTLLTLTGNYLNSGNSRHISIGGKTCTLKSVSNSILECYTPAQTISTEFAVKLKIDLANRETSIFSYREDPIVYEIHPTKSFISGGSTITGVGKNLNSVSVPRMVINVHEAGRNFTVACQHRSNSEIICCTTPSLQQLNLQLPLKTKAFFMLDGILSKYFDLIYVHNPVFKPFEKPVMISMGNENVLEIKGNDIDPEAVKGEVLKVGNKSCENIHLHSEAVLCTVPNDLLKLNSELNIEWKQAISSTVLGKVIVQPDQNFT

B1: VH2/Vk5 (antibody, IgG1, V domains shown)
VH: EVQLVQSGAEVKKPGESLKISCKGSGYSFPTHWITWVRQMPGKGLEWMGTIDPTDSYNFYGPSFQGQVTISADKSISTAYLQWSSLKASDTAMYYCARDGNYYDSRGYYYDTFDMWGQGTLVTVSS
VL: EIVLTQSPGTLSLSPGERATLSCRASQGISTYLAWYQQKPGQAPRLLIYSASTLESGIPDRFSGSGSGTDFTLTISRLEPEDFATYYCQQADSFPLTFGGGTKVEIK
notes: Full IgG1/kappa expressed in HEK 293 EBNA cells
As to B1, in assay [1], the Kd stood at 0.685 nM and the “Relative KD to VMDO2 VH0/Vk0” value is 1.32.

B2: VH4/Vk2 (antibody, IgG1, V domains shown)
VH: QVQLVQSGAEVKKPGSSVKVSCQGSGYSFPTHWITWVRQAPGQGLEWMGTIDPTDSYNFYGPSFQGRVTITADSSTSTAYMELSSLRSEDTAMYYCARDGNYYDSRGYYYDTFDMWGQGTLVTVSS
VL: DIQMTQSPSSLSASVGDRVTITCRASQGISTYLAWYQQKPGKAPKLLIYSASTLESGVPSRFSGSGSGTDFTLTISSLQPEDFATYYCQQADSFPLTFGGGTKVEIK
notes: as for B1
In the case of B2, in assay [2], the “Index 1 (Relative Migration divided by the Average 157.5), HUVEC migration assay” value was determined as 1.13; the “Index 2 (Relative Migration relative to VH0/Vk0), HUVEC migration assay” value is 1.19; the “Relative Migration (%), HUVEC migration assay, 90 ng/ml” value (“Relative Migration (%)” for short) was 177%. Moreover, the “Index 2 (binding affinity, inverse KD relative to VH0/Vk0)” value in assay [3] was 1.23. For the same molecule, in assay [4], the “Index 1 (binding affinity, inverse KD relative to the Average 3.52)” value stood at 0.832. Moreover, in assay [1], the Kd was 0.423 nM and the “Relative KD to VMDO2 VH0/Vk0” value is 0.81.

B3: VH5/Vk4 (antibody, IgG1, V domains shown)
VH: QVQLVQSGAEVKKPGSSVKVSCQGSGYSFPTHWITWVRQAPGQGLEWMGTIDPTDSYNFYGPSFQGRVTITADSSTSTAYMELSSLRSEDTAVYYCARDGNYYDSRGYYYDTFDMWGQGTLVTVSS
VL: EIQMTQSPGTLSLSPGERATLSCRASQGISTYLAWYQQKPGQAPRLLIYSASTLESGVPDRFSGSGSGTDFTLTISRLEPEDFATYYCQQADSFPLTFGGGTKVEIK
notes: as for B1
As for B3, in assay [1], the Kd was 0.349 nM and the “Relative KD to VMDO2 VH0/Vk0” value was found to be 0.67.

B4: VH5/Vk0 (antibody, IgG1, V domains shown)
VH: QVQLVQSGAEVKKPGSSVKVSCQGSGYSFPTHWITWVRQAPGQGLEWMGTIDPTDSYNFYGPSFQGRVTITADSSTSTAYMELSSLRSEDTAVYYCARDGNYYDSRGYYYDTFDMWGQGTLVTVSS
VL: DIQMTQSPSFLSASVGDRVTITCRASQGISTYLAWYQQKPGTAPKLLIYSASTLESGVPSRFSGSGSGTDFTLTISSLQPEDSATYYCQQADSFPLTFGGGTKVEIK
notes: as for B1
As for B4, in assay [2], the “Index 1 (Relative Migration divided by the Average 157.5), HUVEC migration assay” value stood at 0.813; the “Index 2 (Relative Migration relative to VH0/Vk0), HUVEC migration assay” value was determined as 0.855; the “Relative Migration (%)” value worked out at 128%. In assay [3], the “Index 2 (binding affinity, inverse KD relative to VH0/Vk0)” value worked out at 1.48. Also, the “Index 1 (binding affinity, inverse KD relative to the Average 3.52)” value in assay [4] was 1. For the same molecule, in assay [1], the Kd worked out at 0.352 nM and the “Relative KD to VMDO2 VH0/Vk0” value worked out at 0.68.

B5: VH6/Vk3 (antibody, IgG1, V domains shown)
VH: QVQLVQSGAEVKKPGSSVKVSCKASGYSFPTHWITWVRQAPGQGLEWMGTIDPTDSYNFYGPSFQGRVTITADKSTSTAYMELSSLRSEDTAVYYCARDGNYYDSRGYYYDTFDMWGQGTLVTVSS
VL: DIQMTQSPGFLSLSPGERATLSCRASQGISTYLAWYQQKPGQAPRLLIYSASTLESGVPDRFSGSGSGTDFTLTISRLEPEDFATYYCQQADSFPLTFGGGTKVEIK
notes: as for B1
Consider B5, for which, in assay [1], the Kd was found to be 0.431 nM and the “Relative KD to VMDO2 VH0/Vk0” value is 0.83.

B6: VH4/Vk0 (antibody, IgG1, V domains shown)
VH: QVQLVQSGAEVKKPGSSVKVSCQGSGYSFPTHWITWVRQAPGQGLEWMGTIDPTDSYNFYGPSFQGRVTITADSSTSTAYMELSSLRSEDTAMYYCARDGNYYDSRGYYYDTFDMWGQGTLVTVSS
VL: DIQMTQSPSFLSASVGDRVTITCRASQGISTYLAWYQQKPGTAPKLLIYSASTLESGVPSRFSGSGSGTDFTLTISSLQPEDSATYYCQQADSFPLTFGGGTKVEIK
notes: as for B1
Turning to B6, in assay [2], the “Index 1 (Relative Migration divided by the Average 157.5), HUVEC migration assay” value is 0.773; the “Index 2 (Relative Migration relative to VH0/Vk0), HUVEC migration assay” value stood at 0.812; the “Relative Migration (%)” value is 122%. The “Index 2 (binding affinity, inverse KD relative to VH0/Vk0)” value in assay [3] was found to be 1.32. Also, in assay [4], the “Index 1 (binding affinity, inverse KD relative to the Average 3.52)” value was 0.891. Moreover, in assay [1], the Kd turned out to be 0.395 nM and the “Relative KD to VMDO2 VH0/Vk0” value came out at 0.76.

B7: VH5/Vk5 (antibody, IgG1, V domains shown)
VH: QVQLVQSGAEVKKPGSSVKVSCQGSGYSFPTHWITWVRQAPGQGLEWMGTIDPTDSYNFYGPSFQGRVTITADSSTSTAYMELSSLRSEDTAVYYCARDGNYYDSRGYYYDTFDMWGQGTLVTVSS
VL: EIVLTQSPGTLSLSPGERATLSCRASQGISTYLAWYQQKPGQAPRLLIYSASTLESGIPDRFSGSGSGTDFTLTISRLEPEDFATYYCQQADSFPLTFGGGTKVEIK
notes: as for B1
For the molecule B7, in assay [1], the Kd came to 0.506 nM and the “Relative KD to VMDO2 VH0/Vk0” value is 0.97.

B8: VH4/Vk4 (antibody, IgG1, V domains shown)
VH: QVQLVQSGAEVKKPGSSVKVSCQGSGYSFPTHWITWVRQAPGQGLEWMGTIDPTDSYNFYGPSFQGRVTITADSSTSTAYMELSSLRSEDTAMYYCARDGNYYDSRGYYYDTFDMWGQGTLVTVSS
VL: EIQMTQSPGTLSLSPGERATLSCRASQGISTYLAWYQQKPGQAPRLLIYSASTLESGVPDRFSGSGSGTDFTLTISRLEPEDFATYYCQQADSFPLTFGGGTKVEIK
notes: as for B1
Take B8: in assay [1], the Kd came out at 0.372 nM and the “Relative KD to VMDO2 VH0/Vk0” value worked out at 0.72.

B9: VH6/Vk5 (antibody, IgG1, V domains shown)
VH: QVQLVQSGAEVKKPGSSVKVSCKASGYSFPTHWITWVRQAPGQGLEWMGTIDPTDSYNFYGPSFQGRVTITADKSTSTAYMELSSLRSEDTAVYYCARDGNYYDSRGYYYDTFDMWGQGTLVTVSS
VL: EIVLTQSPGTLSLSPGERATLSCRASQGISTYLAWYQQKPGQAPRLLIYSASTLESGIPDRFSGSGSGTDFTLTISRLEPEDFATYYCQQADSFPLTFGGGTKVEIK
notes: as for B1
In the case of B9, in assay [1], the Kd worked out at 0.557 nM and the “Relative KD to VMDO2 VH0/Vk0” value was 1.07.

B10: VH6/Vk4 (antibody, IgG1, V domains shown)
VH: QVQLVQSGAEVKKPGSSVKVSCKASGYSFPTHWITWVRQAPGQGLEWMGTIDPTDSYNFYGPSFQGRVTITADKSTSTAYMELSSLRSEDTAVYYCARDGNYYDSRGYYYDTFDMWGQGTLVTVSS
VL: EIQMTQSPGTLSLSPGERATLSCRASQGISTYLAWYQQKPGQAPRLLIYSASTLESGVPDRFSGSGSGTDFTLTISRLEPEDFATYYCQQADSFPLTFGGGTKVEIK
notes: as for B1
Regarding B10, in assay [1], binding was put at a Kd of 0.391 nM and the “Relative KD to VMDO2 VH0/Vk0” value was 0.75.

B11: VH3/Vk2 (antibody, IgG1, V domains shown)
VH: QVQLVQSGAEVKKPGSSVKVSCQGSGYSFPTHWITWVRQAPGQGLEWMGTIDPTDSYNFYGPSFQGRVTITADSSTSTAYLQWSSLKASDTAMYYCARDGNYYDSRGYYYDTFDMWGQGTLVTVSS
VL: DIQMTQSPSSLSASVGDRVTITCRASQGISTYLAWYQQKPGKAPKLLIYSASTLESGVPSRFSGSGSGTDFTLTISSLQPEDFATYYCQQADSFPLTFGGGTKVEIK
notes: as for B1
On to B11, for which, in assay [2], the “Index 1 (Relative Migration divided by the Average 157.5), HUVEC migration assay” value was 1.04; the “Index 2 (Relative Migration relative to VH0/Vk0), HUVEC migration assay” value stood at 1.09; the “Relative Migration (%)” value was 164%. Further, the “Index 2 (binding affinity, inverse KD relative to VH0/Vk0)” value in assay [3] is 1.09. The “Index 1 (binding affinity, inverse KD relative to the Average 3.52)” value in assay [4] stood at 0.738. Further, in assay [1], the Kd was 0.477 nM and the “Relative KD to VMDO2 VH0/Vk0” value stood at 0.92.

B12: VH4/Vk3 (antibody, IgG1, V domains shown)
VH: QVQLVQSGAEVKKPGSSVKVSCQGSGYSFPTHWITWVRQAPGQGLEWMGTIDPTDSYNFYGPSFQGRVTITADSSTSTAYMELSSLRSEDTAMYYCARDGNYYDSRGYYYDTFDMWGQGTLVTVSS
VL: DIQMTQSPGFLSLSPGERATLSCRASQGISTYLAWYQQKPGQAPRLLIYSASTLESGVPDRFSGSGSGTDFTLTISRLEPEDFATYYCQQADSFPLTFGGGTKVEIK
notes: as for B1
For the molecule B12, in assay [1], binding was put at a Kd of 0.422 nM and the “Relative KD to VMDO2 VH0/Vk0” value stood at 0.81.

B13: VH5/Vk3 (antibody, IgG1, V domains shown)
VH: QVQLVQSGAEVKKPGSSVKVSCQGSGYSFPTHWITWVRQAPGQGLEWMGTIDPTDSYNFYGPSFQGRVTITADSSTSTAYMELSSLRSEDTAVYYCARDGNYYDSRGYYYDTFDMWGQGTLVTVSS
VL: DIQMTQSPGFLSLSPGERATLSCRASQGISTYLAWYQQKPGQAPRLLIYSASTLESGVPDRFSGSGSGTDFTLTISRLEPEDFATYYCQQADSFPLTFGGGTKVEIK
notes: as for B1
For B13, in assay [1], the affinity, expressed as Kd, was 0.402 nM and the “Relative KD to VMDO2 VH0/Vk0” value is 0.77.

(Values after patent publication US20210403576A1 (HELIXMITH, published 2021).)
